Test results: patent publication US20260234238A1 (GEOVISTA, published 2026)
Where “and” joins values, the source holds several entries; their conditions need not be identical. Equal values may be shown once.

T1: recombinant histidine-tagged canine interleukin-13 (cIL-13) (canine, UniProt Q9N0W9 19-131, N-linked glycans attached to asparagine residues at positions 38, 48, 56, and 71)
T1 construct: mature; Secreted from ExpiCHO-S cells and purified by IMAC; also called canine IL-13; Canis Interleukin-13
T1 sequence: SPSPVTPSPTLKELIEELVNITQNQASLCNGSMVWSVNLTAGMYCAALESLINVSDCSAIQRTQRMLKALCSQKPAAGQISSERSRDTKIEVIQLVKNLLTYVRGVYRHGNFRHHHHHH


Assays:
[1] = target: T1, recombinant histidine-tagged canine …; test: ELISA, His-tagged cIL-13 on nickel plate
Method: A conventional ELISA method was used to assess the antigen reactivity of the caninized antibodies. The inventors of the present invention coated 96-well nickel plates with His-tagged cIL-13 at a concentration of 1 μg/mL and incubated the plates at room temperature for 1 hour. Wells were washed three times using 200 μL of wash buffer per well; the wash buffer consisted of 1×PBS containing 0.1% Tween-20. In one embodiment of the present disclosure, diluted antibodies were added to the wells at 100 μL per well and incubated again at room temperature for 1 hour. The dilution buffer used was a 1:1 mixture of 25 mL of 1× casein solution and 25 mL of 1×PBS. Next, 50 μL of HRP-conjugated goat anti-human IgG was diluted in 10 mL of dilution buffer and dispensed at 100 μL per well, followed by incubation at room temperature for 1 hour. The wells were then washed three times with 200 μL of wash buffer. TMB substrate (50 μL per well) was added. The plates were incubated at room temperature for 10 minutes. The reaction was stopped by adding 50 μL per well of 1 N sulfuric acid as a stop solution, and absorbance was measured at 450 nm using a spectrophotometer.

[2] = target: T1, recombinant histidine-tagged canine …; test: cell-based or functional assay
[3] = target: T1, recombinant histidine-tagged canine …; test: ELISA, His-tagged cIL-13 on nickel-coated plate
Method: In one embodiment of the present disclosure, recombinant canine IL-13 (cIL-13) protein with a histidine tag was dispensed onto nickel-coated plates (Thermo Fisher, #15442) at 100 ng/100 μL per well and incubated at room temperature for 1 hour. The plates were then washed three times with 1×PBST, and serial dilutions of the chimeric antibodies in 1×PBS were added and incubated at room temperature for 1 hour to allow antigen-antibody binding. After three washes with 1×PBST, an HRP-conjugated secondary antibody that cross-reacts with canine antibodies was diluted 1:100 in casein buffer and added at 100 μL per well, followed by incubation at 37° C. for 30 minutes. The HRP-conjugated secondary antibody used may be Jackson ImmunoResearch, #115-036-071, and the casein buffer may be Thermo Fisher Scientific, #37528; however, these examples are not intended to limit the scope of the present disclosure. After another three washes with 1×PBST, TMB was added to initiate color development, and the reaction was terminated by the addition of an equal volume of 1.0 N sulfuric acid.

| EC50 [1] [µg/mL] | TF-1 cell proliferation inhibition IC50 [2] [nM] | EC50 [3] | Binder |
| --- | --- | --- | --- |
| 0.122 | 1.13 |  | Ab21 (antibody, V domains shown, Caninized antibody) VH: EVQLVQSGAEVVKPGASVKVSCKTSGYSFTDYPIYWVRQAPGAGLEWIGYIDPYNGGTTYNQNFKDRVTLTADKSTSTAYMELSSLRAGDIAVYYCATAVVATDVMENWGQGTLVTVSS VL: EIVLTQSPASLSLSQEERVTITCKASQNVRNAVAWFQQKPGQAPKALIYLASNRYTGVPSRFSGSGSGTDFTLTISSLEPEDVADYFCLQHWNYPLTFGAGTKVELK |
| 0.137 | 0.98 |  | Ab22 (antibody, V domains shown, Caninized antibody) VH: EVQLVQSGAEVVKPGASVKVSCKTSGYSFTDYPIYWVRQAPGAGLEWIGYIDPYNGGTTYNQNFKDRVTLTADKSTSTAYMELSSLRAGDIAVYYCATAVVATDVMENWGQGTLVTVSS VL: DIVLTQTPLSLSVSPGETASISCKASQNVRNAVAWFRQKPGQSPQALIYLASNRYTGVPDRFSGSGSGTDFTLRISRVEAEDTGDYFCLQHWNYPLTFGAGTKVELK |
| 0.108 | 35.2 |  | Ab23 (antibody, V domains shown, Caninized antibody) VH: EVQLVQSGAEVVKPGASVKVSCKTSGYSFTDYPIYWVRQAPGAGLEWIGYIDPYNGGTTYNQNFKDRVTLTADKSTSTAYMELSSLRAGDIAVYYCATAVVATDVMENWGQGTLVTVSS VL: DIVMTQTPLSLSVSPGETASISCKASQNLRNALAWFRQKPGQSPQALIYLVSNRYPGVPDRFSGSGSGTDFTLRISRVEAEDTGVYYCLQHWQYPLTFGAGTKVELK |
| 0.134 | 4.09 |  | Ab24 (antibody, V domains shown, Caninized antibody) VH: EVQLVQSGAEVKKPGASVKVSCKTSGYTFIDYPMYWVRQAPGAGLEWMGYIDPYNGATSYNQNFKGRVTLTADKSTSTAYMELSSLRAGDIAVYYCATAVVATDVMENWGQGTLVTVSS VL: DIVLTQTPLSLSVSPGETASISCKASQNVRNAVAWFRQKPGQSPQALIYLASNRYTGVPDRFSGSGSGTDFTLRISRVEAEDTGDYFCLQHWNYPLTFGAGTKVELK |
| 1.78 |  |  | Ab14 (antibody, V domains shown, Caninized antibody) VH: EVQLVQSGAEVKKPGASVKVSCKTSGYTFIDYPMYWVRQAPGAGLEWMGYIDPYNGATSYNQKFQGRVTLTADTSTSTAYMELSSLRAGDIAVYYCARAVVATDVMENWGQGTLVTVSS VL: DIVMTQTPLSLSVSPGETASISCKASQSLRSALAWFRQKPGQSPQRLIYLVSNRYPGVPDRFSGSGSGTDFTLRISRVEAEDTGVYYCLQHWQFPLTFGAGTKVELK |
|  |  | 0.162 µg/mL and 1.08 nM | Chimeric 32A10 CO (antibody, V domains shown, also called Chimeric antibody (CO type)) VH: QVQLKQSGPELVKPGASVKVSCKTSGYSFTDYPIYWVRQSHGESLEWIGYIDPYNGGTTYNQNFKDKATLTVDKSSSTAFMHLYSLTSEDSAVYFCATAVVATDVMENWGQGTSVTVSS VL: DIVLTQSQKFMSTSVGDRVSITCKASQNVRNAVAWFQQKPGQSPKALIYLASNRYTGVPDHFTGSGSGTDFTLTISNVQSEDLADYFCLQHWNYPLTFGAGTKLELK |

The next lines start with the binder.

| Binder | EC50 [1] [µg/mL] | TF-1 cell proliferation inhibition IC50 [2] [nM] | EC50 [3] |
| --- | --- | --- | --- |
| Ab4 (antibody, V domains shown, Caninized antibody) VH: EVQLVQSGAEVKKPGASVKVSCKTSGYTFIDYPMYWVRQAPGAGLEWMGYIDPYNGATSYNQNFKGRVTLTADKSTSTAYMELSSLRAGDIAVYYCATAVVATDVMENWGQGTLVTVSS VL: EIVMTQSPASLSLSQEERVTITCRASQNVRNALAWYQQKPGQAPKLLIYLTSNRYTGVPSRFSGSGSGTDFTFTISSLEPEDVAVYYCLQHWNYPLTFGAGTKVELK | 0.0572 | 71.5 |  |
| Ab2 (antibody, V domains shown, Caninized antibody) VH: EVQLVQSGAEVKKPGASVKVSCKTSGYTFIDYPMYWVRQAPGAGLEWMGYIDPYNGATSYNQKFQGRVTLTADTSTSTAYMELSSLRAGDIAVYYCARAVVATDVMENWGQGTLVTVSS VL: EIVLTQSPASLSLSQEERVTITCKASQNVRNAVAWFQQKPGQAPKALIYLASNRYTGVPSRFSGSGSGTDFTLTISSLEPEDVADYFCLQHWNYPLTFGAGTKVELK | 0.0782 |  |  |
| Ab10 (antibody, V domains shown, Caninized antibody) VH: EVQLVQSGAEVKKPGASVKVSCKTSGYTFIDYPMYWVRQAPGAGLEWMGYIDPYNGATSYNQNFKGRVTLTADKSTSTAYMELSSLRAGDIAVYYCATAVVATDVMENWGQGTLVTVSS VL: DIVMTQTPLSLSVSPGETASISCKASQNLRNALAWFRQKPGQSPQALIYLVSNRYPGVPDRFSGSGSGTDFTLRISRVEAEDTGVYYCLQHWQYPLTFGAGTKVELK | 0.0819 |  |  |
| Ab11 (antibody, V domains shown, Caninized antibody) VH: EVQLVQSGAEVKKPGASVKVSCKTSGYTFIDYPMYWVRQAPGAGLEWMGYIDPYNGATSYNQKFQGRVTLTADTSTSTAYMELSSLRAGDIAVYYCARAVVATDVMENWGQGTLVTVSS VL: DIVMTQTPLSLSVSPGETASISCKASQNLRNALAWFRQKPGQSPQALIYLVSNRYPGVPDRFSGSGSGTDFTLRISRVEAEDTGVYYCLQHWQYPLTFGAGTKVELK | 0.111 |  |  |
| Ab3 (antibody, V domains shown, Caninized antibody) VH: EVQLVQSGAEVVKPGASVKVSCKTSGYSFTDYPIYWVRQAPGAGLEWIGYIDPYNGGTTYNQNFKDRVTLTADKSTSTAYMELSSLRAGDIAVYYCATAVVATDVMENWGQGTLVTVSS VL: EIVMTQSPASLSLSQEERVTITCRASQNVRNALAWYQQKPGQAPKLLIYLTSNRYTGVPSRFSGSGSGTDFTFTISSLEPEDVAVYYCLQHWNYPLTFGAGTKVELK | 0.0459 | 52.7 |  |
| Ab6 (antibody, V domains shown, Caninized antibody) VH: EVQLVQSGAEVVKPGASVKVSCKTSGYSFTDYPIYWVRQAPGAGLEWIGYIDPYNGGTTYNQNFKDRVTLTADKSTSTAYMELSSLRAGDIAVYYCATAVVATDVMENWGQGTLVTVSS VL: EIVMTQSPASLSLSQEERVTITCRASQSVRSALAWYQQKPGQAPKLLIYGTSNRYTGVPSRFSGSGSGTDFTFTISSLEPEDVAVYYCLQHWSYPLTFGAGTKVELK | 0.246 |  |  |
| Ab9 (antibody, V domains shown, Caninized antibody) VH: EVQLVQSGAEVKKPGASVKVSCKTSGYTFIDYPMYWVRQAPGAGLEWMGYIDPYNGATSYNQKFQGRVTLTADTSTSTAYMELSSLRAGDIAVYYCARAVVATDVMENWGQGTLVTVSS VL: DIVLTQTPLSLSVSPGETASISCKASQNVRNAVAWFRQKPGQSPQALIYLASNRYTGVPDRFSGSGSGTDFTLRISRVEAEDTGDYFCLQHWNYPLTFGAGTKVELK | 0.0926 |  |  |
| Ab12 (antibody, V domains shown, Caninized antibody) VH: EVQLVQSGAEVVKPGASVKVSCKTSGYSFTDYPIYWVRQAPGAGLEWIGYIDPYNGGTTYNQNFKDRVTLTADKSTSTAYMELSSLRAGDIAVYYCATAVVATDVMENWGQGTLVTVSS VL: DIVMTQTPLSLSVSPGETASISCKASQSLRSALAWFRQKPGQSPQRLIYLVSNRYPGVPDRFSGSGSGTDFTLRISRVEAEDTGVYYCLQHWQFPLTFGAGTKVELK | 4.39 |  |  |
| Ab8 (antibody, V domains shown, Caninized antibody) VH: EVQLVQSGAEVKKPGASVKVSCKTSGYTFIDYPMYWVRQAPGAGLEWMGYIDPYNGATSYNQKFQGRVTLTADTSTSTAYMELSSLRAGDIAVYYCARAVVATDVMENWGQGTLVTVSS VL: EIVMTQSPASLSLSQEERVTITCRASQSVRSALAWYQQKPGQAPKLLIYGTSNRYTGVPSRFSGSGSGTDFTFTISSLEPEDVAVYYCLQHWSYPLTFGAGTKVELK | 12.4 |  |  |
| Ab1 (antibody, V domains shown, Caninized antibody) VH: EVQLVQSGAEVKKPGASVKVSCKTSGYTFIDYPMYWVRQAPGAGLEWMGYIDPYNGATSYNQNFKGRVTLTADKSTSTAYMELSSLRAGDIAVYYCATAVVATDVMENWGQGTLVTVSS VL: EIVLTQSPASLSLSQEERVTITCKASQNVRNAVAWFQQKPGQAPKALIYLASNRYTGVPSRFSGSGSGTDFTLTISSLEPEDVADYFCLQHWNYPLTFGAGTKVELK | 0.0564 |  |  |
| Ab5 (antibody, V domains shown, Caninized antibody) VH: EVQLVQSGAEVKKPGASVKVSCKTSGYTFIDYPMYWVRQAPGAGLEWMGYIDPYNGATSYNQKFQGRVTLTADTSTSTAYMELSSLRAGDIAVYYCARAVVATDVMENWGQGTLVTVSS VL: EIVMTQSPASLSLSQEERVTITCRASQNVRNALAWYQQKPGQAPKLLIYLTSNRYTGVPSRFSGSGSGTDFTFTISSLEPEDVAVYYCLQHWNYPLTFGAGTKVELK | 0.0765 | 34.2 |  |
